Target: N-type calcium channels (Mus musculus, UniProt O55017)
Experiment: Whole-cell patch clamp recordings of calcium currents in dorsal root ganglion neurons
Assay type: cell-based, Swiss mice
Details: 100 μM; FIG. 5A

Sequence of N-type calcium channels (O55017 whole entry): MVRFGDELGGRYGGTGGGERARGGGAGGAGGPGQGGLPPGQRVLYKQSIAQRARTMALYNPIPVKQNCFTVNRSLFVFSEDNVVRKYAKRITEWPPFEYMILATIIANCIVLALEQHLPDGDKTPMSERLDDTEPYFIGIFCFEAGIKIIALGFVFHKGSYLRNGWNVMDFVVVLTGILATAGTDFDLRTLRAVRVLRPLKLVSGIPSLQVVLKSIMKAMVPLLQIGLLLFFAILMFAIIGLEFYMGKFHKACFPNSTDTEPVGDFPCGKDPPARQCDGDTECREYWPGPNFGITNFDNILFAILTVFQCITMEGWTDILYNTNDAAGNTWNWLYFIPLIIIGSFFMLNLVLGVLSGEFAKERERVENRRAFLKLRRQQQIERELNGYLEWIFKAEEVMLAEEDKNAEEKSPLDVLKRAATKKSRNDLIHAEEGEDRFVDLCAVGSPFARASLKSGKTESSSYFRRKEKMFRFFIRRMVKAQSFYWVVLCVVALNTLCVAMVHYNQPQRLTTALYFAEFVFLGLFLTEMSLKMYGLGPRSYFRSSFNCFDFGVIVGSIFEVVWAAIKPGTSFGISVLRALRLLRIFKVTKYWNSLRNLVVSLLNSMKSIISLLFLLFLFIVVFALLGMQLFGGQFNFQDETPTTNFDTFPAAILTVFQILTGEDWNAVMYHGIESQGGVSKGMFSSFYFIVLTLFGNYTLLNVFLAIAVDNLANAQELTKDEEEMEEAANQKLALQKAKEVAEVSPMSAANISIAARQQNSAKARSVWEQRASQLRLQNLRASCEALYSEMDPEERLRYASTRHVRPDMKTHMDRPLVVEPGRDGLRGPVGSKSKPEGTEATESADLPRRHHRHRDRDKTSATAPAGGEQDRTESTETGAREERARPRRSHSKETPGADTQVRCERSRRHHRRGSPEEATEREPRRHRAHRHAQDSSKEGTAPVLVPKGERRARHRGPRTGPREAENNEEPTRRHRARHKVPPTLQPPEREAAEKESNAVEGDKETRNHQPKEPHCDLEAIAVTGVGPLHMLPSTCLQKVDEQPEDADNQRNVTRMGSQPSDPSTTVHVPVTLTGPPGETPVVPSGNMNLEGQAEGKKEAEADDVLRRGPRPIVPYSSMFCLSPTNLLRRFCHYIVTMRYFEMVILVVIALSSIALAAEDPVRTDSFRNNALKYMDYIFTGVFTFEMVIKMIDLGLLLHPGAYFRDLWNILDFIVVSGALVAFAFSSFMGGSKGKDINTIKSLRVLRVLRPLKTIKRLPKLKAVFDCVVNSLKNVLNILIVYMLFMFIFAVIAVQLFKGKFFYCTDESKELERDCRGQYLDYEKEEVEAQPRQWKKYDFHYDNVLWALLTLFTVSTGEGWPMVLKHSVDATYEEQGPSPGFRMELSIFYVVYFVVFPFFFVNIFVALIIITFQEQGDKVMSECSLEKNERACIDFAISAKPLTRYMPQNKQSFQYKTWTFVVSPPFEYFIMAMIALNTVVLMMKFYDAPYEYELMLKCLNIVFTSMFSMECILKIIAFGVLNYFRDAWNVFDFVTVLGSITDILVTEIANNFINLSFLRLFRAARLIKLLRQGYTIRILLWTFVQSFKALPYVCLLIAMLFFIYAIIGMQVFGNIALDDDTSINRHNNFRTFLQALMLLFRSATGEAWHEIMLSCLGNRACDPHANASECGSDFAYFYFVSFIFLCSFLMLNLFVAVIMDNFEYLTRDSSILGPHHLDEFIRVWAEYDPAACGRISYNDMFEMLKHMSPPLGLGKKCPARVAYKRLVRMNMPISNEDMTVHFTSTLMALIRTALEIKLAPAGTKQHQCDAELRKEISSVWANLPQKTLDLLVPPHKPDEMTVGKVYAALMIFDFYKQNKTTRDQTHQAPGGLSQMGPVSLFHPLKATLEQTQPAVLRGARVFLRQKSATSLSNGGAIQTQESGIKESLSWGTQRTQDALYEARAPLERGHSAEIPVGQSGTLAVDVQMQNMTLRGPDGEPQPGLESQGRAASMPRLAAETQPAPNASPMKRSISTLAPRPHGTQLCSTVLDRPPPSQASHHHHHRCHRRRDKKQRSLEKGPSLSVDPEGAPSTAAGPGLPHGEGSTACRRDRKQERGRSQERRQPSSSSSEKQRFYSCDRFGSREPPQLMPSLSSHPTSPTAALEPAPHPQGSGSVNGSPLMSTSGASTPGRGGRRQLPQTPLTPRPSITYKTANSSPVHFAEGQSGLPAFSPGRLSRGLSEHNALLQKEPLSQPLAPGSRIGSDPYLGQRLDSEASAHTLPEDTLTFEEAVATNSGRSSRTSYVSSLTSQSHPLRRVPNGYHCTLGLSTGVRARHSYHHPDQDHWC
Sequence of N-type calcium channels (O08532 25-956 partner limits assumed): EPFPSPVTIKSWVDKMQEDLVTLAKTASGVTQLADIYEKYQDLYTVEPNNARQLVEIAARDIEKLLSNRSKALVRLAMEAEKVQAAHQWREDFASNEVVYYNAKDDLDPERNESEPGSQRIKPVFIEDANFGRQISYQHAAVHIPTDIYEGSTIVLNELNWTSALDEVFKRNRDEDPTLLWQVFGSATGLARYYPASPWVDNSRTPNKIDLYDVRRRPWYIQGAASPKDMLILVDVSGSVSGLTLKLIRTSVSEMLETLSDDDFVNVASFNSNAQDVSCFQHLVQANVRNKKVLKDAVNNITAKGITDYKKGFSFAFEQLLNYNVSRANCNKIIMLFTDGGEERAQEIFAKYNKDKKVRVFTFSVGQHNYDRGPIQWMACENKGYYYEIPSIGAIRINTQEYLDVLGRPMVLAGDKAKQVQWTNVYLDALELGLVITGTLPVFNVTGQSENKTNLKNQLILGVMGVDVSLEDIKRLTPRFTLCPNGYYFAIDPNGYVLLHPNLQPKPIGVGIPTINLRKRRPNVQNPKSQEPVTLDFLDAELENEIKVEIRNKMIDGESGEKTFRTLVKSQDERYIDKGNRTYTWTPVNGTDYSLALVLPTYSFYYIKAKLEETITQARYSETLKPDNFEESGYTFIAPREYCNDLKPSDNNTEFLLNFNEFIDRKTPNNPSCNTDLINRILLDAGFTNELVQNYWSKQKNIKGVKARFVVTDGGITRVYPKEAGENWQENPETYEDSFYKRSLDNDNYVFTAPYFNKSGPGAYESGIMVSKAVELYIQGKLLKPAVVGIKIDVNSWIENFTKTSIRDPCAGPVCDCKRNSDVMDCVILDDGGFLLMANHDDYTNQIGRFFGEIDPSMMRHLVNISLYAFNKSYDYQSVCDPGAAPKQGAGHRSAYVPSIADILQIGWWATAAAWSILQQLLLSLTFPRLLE
Sequence of N-type calcium channels (O08532 957-1103 partner limits assumed): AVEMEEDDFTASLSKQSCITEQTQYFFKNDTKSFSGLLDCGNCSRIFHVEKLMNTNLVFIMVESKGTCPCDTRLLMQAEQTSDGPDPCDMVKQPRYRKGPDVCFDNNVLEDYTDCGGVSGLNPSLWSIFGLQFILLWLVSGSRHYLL
Sequence of N-type calcium channels (P54285 whole entry partner): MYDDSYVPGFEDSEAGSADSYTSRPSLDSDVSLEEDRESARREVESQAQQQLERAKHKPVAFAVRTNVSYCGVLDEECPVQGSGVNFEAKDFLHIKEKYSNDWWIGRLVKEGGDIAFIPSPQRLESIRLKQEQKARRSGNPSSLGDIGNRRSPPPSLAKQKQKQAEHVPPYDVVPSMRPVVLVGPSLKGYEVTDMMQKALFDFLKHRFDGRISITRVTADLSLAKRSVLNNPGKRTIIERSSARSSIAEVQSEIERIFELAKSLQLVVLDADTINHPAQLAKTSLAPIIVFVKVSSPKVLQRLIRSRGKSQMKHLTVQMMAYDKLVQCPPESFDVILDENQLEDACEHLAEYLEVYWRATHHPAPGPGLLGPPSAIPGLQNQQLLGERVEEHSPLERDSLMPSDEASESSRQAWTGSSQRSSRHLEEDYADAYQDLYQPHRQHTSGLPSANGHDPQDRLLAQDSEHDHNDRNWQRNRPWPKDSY

YGRKKRRQRRRKLSSIESDV [Tat-NR2B9c, reference compound]
additional inhibition once N-channels are blocked by omega conotoxin (1 μM): no additional inhibition

Reference: patent US9061070B2, “Treating stroke and other diseases without inhibiting N-type calcium channels” (NoNO, Inc., priority 2007, dated 2015)
